# Patent US20150218534A1, “MODIFIED DNA POLYMERASE” (TOYOBO CO., LTD., priority 2012, published 2015)
# Test system: 1.3 kbp, 2.8 kbp, and 3.6 kbp of human β-globin
# Test: Amplification of long-chain DNA in PCR using dUTP
# Type: biochemical
# Design: key to Results of PCR in the presence of dUTP 1.3 kbp / Results of PCR in the presence of dUTP 2.8 kbp / Results of PCR in the presence of dUTP 3.6 kbp: A: Amplified; B: Amplified (faint band); C: Not amplified
# Details: dTTP replaced by dUTP, 35 cycles
# Method in brief: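 Enzymes (1 U, premixed with KOD antibody) amplified 1.3, 2.8 and 3.6 kbp β-globin from 10 ng human genomic DNA with 2 mM dNTPs having dUTP in place of dTTP, 1.5 mM MgSO4, 35 cycles (98° C. 10 s, 65° C. 30 s, 68° C. ~1 min/kbp). Taq control: 2.5 U, 94° C. denaturation. Yield judged by ethidium-stained agarose gel.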
Molecule,Results of PCR in the presence of dUTP 1.3 kbp,Results of PCR in the presence of dUTP 2.8 kbp,Results of PCR in the presence of dUTP 3.6 kbp
KOD D141A/E143A/V93K: KOD D141A/E143A (exo(−)) mutant with V93K,A,B,B
KOD I142R/Y7A/P36R: KOD I142R (exo(−)) mutant with Y7A and P36R,A,A,B
KOD I142R/V93K: KOD I142R (exo(−)) mutant with V93K,A,B,B
"KOD Y7A: modified DNA polymerase derived from Thermococcus kodakaraensis KOD1 with Y7A (protein, listed as Thermococcus kodakaraensis) MILDTDAITEDGKPVIRIFKKENGEFKIEYDRTFEPYFYALLKDDSAIEEVKKITAERHGTVVTVKRVEKVQKKFLGRPVEVWKLYFTHPQDVPAIRDKIREHPAVIDIYEYDIPFAKRYLIDKGLVPMEGDEELKMLAFDIETLYHEGEEFAEGPILMISYADEEGARVITWKNVDLPYVDVVSTEREMIKRFLRVVKEKDPDVLITYNGDNFDFAYLKKRCEKLGINFALGRDGSEPKIQRMGDRFAVEVKGRIHFDLYPVIRRTINLPTYTLEAVYEAVFGQPKEKVYAEEITTAWETGENLERVARYSMEDAKVTYELGKEFLPMEAQLSRLIGQSLWDVSRSSTGNLVEWFLLRKAYERNELAPNKPDEKELARRRQSYEGGYVKEPERGLWENIVYLDFRSLYPSIIITHNVSPDTLNREGCKEYDVAPQVGHRFCKDFPGFIPSLLGDLLEERQKIKKKMKATIDPIERKLLDYRQRAIKILANSYYGYYGYARARWYCKECAESVTAWGREYITMTIKEIEEKYGFKVIYSDTDGFFATIPGADAETVKKKAMEFLKYINAKLPGALELEYEGFYKRGFFVTKKKYAVIDEEGKITTRGLEIVRRDWSEIAKETQARVLEALLKDGDVEKAVRIVKEVTEKLSKYEVPPEKLVIHEQITRDLKDYKATGPHVAVAKRLAARGVKIRPGTVISYIVLKGSGRIGDRAIPFDEFDPTKHKYDAEYYIENQVLPAVERILRAFGYRKEDLRYQKTRQVGLSAWLKPKGT",C,C,C
"KOD P36R: modified KOD DNA polymerase with P36R (protein, listed as Thermococcus kodakaraensis) MILDTDYITEDGKPVIRIFKKENGEFKIEYDRTFERYFYALLKDDSAIEEVKKITAERHGTVVTVKRVEKVQKKFLGRPVEVWKLYFTHPQDVPAIRDKIREHPAVIDIYEYDIPFAKRYLIDKGLVPMEGDEELKMLAFDIETLYHEGEEFAEGPILMISYADEEGARVITWKNVDLPYVDVVSTEREMIKRFLRVVKEKDPDVLITYNGDNFDFAYLKKRCEKLGINFALGRDGSEPKIQRMGDRFAVEVKGRIHFDLYPVIRRTINLPTYTLEAVYEAVFGQPKEKVYAEEITTAWETGENLERVARYSMEDAKVTYELGKEFLPMEAQLSRLIGQSLWDVSRSSTGNLVEWFLLRKAYERNELAPNKPDEKELARRRQSYEGGYVKEPERGLWENIVYLDFRSLYPSIIITHNVSPDTLNREGCKEYDVAPQVGHRFCKDFPGFIPSLLGDLLEERQKIKKKMKATIDPIERKLLDYRQRAIKILANSYYGYYGYARARWYCKECAESVTAWGREYITMTIKEIEEKYGFKVIYSDTDGFFATIPGADAETVKKKAMEFLKYINAKLPGALELEYEGFYKRGFFVTKKKYAVIDEEGKITTRGLEIVRRDWSEIAKETQARVLEALLKDGDVEKAVRIVKEVTEKLSKYEVPPEKLVIHEQITRDLKDYKATGPHVAVAKRLAARGVKIRPGTVISYIVLKGSGRIGDRAIPFDEFDPTKHKYDAEYYIENQVLPAVERILRAFGYRKEDLRYQKTRQVGLSAWLKPKGT",B,B,B
"KOD V93R: modified KOD DNA polymerase with V93R (protein, listed as Thermococcus kodakaraensis) MILDTDYITEDGKPVIRIFKKENGEFKIEYDRTFEPYFYALLKDDSAIEEVKKITAERHGTVVTVKRVEKVQKKFLGRPVEVWKLYFTHPQDRPAIRDKIREHPAVIDIYEYDIPFAKRYLIDKGLVPMEGDEELKMLAFDIETLYHEGEEFAEGPILMISYADEEGARVITWKNVDLPYVDVVSTEREMIKRFLRVVKEKDPDVLITYNGDNFDFAYLKKRCEKLGINFALGRDGSEPKIQRMGDRFAVEVKGRIHFDLYPVIRRTINLPTYTLEAVYEAVFGQPKEKVYAEEITTAWETGENLERVARYSMEDAKVTYELGKEFLPMEAQLSRLIGQSLWDVSRSSTGNLVEWFLLRKAYERNELAPNKPDEKELARRRQSYEGGYVKEPERGLWENIVYLDFRSLYPSIIITHNVSPDTLNREGCKEYDVAPQVGHRFCKDFPGFIPSLLGDLLEERQKIKKKMKATIDPIERKLLDYRQRAIKILANSYYGYYGYARARWYCKECAESVTAWGREYITMTIKEIEEKYGFKVIYSDTDGFFATIPGADAETVKKKAMEFLKYINAKLPGALELEYEGFYKRGFFVTKKKYAVIDEEGKITTRGLEIVRRDWSEIAKETQARVLEALLKDGDVEKAVRIVKEVTEKLSKYEVPPEKLVIHEQITRDLKDYKATGPHVAVAKRLAARGVKIRPGTVISYIVLKGSGRIGDRAIPFDEFDPTKHKYDAEYYIENQVLPAVERILRAFGYRKEDLRYQKTRQVGLSAWLKPKGT",B,B,B
"KOD V93K: modified KOD DNA polymerase with V93K (protein, listed as Thermococcus kodakaraensis) MILDTDYITEDGKPVIRIFKKENGEFKIEYDRTFEPYFYALLKDDSAIEEVKKITAERHGTVVTVKRVEKVQKKFLGRPVEVWKLYFTHPQDKPAIRDKIREHPAVIDIYEYDIPFAKRYLIDKGLVPMEGDEELKMLAFDIETLYHEGEEFAEGPILMISYADEEGARVITWKNVDLPYVDVVSTEREMIKRFLRVVKEKDPDVLITYNGDNFDFAYLKKRCEKLGINFALGRDGSEPKIQRMGDRFAVEVKGRIHFDLYPVIRRTINLPTYTLEAVYEAVFGQPKEKVYAEEITTAWETGENLERVARYSMEDAKVTYELGKEFLPMEAQLSRLIGQSLWDVSRSSTGNLVEWFLLRKAYERNELAPNKPDEKELARRRQSYEGGYVKEPERGLWENIVYLDFRSLYPSIIITHNVSPDTLNREGCKEYDVAPQVGHRFCKDFPGFIPSLLGDLLEERQKIKKKMKATIDPIERKLLDYRQRAIKILANSYYGYYGYARARWYCKECAESVTAWGREYITMTIKEIEEKYGFKVIYSDTDGFFATIPGADAETVKKKAMEFLKYINAKLPGALELEYEGFYKRGFFVTKKKYAVIDEEGKITTRGLEIVRRDWSEIAKETQARVLEALLKDGDVEKAVRIVKEVTEKLSKYEVPPEKLVIHEQITRDLKDYKATGPHVAVAKRLAARGVKIRPGTVISYIVLKGSGRIGDRAIPFDEFDPTKHKYDAEYYIENQVLPAVERILRAFGYRKEDLRYQKTRQVGLSAWLKPKGT",B,B,B
"KOD V93Q: modified KOD DNA polymerase with V93Q (protein, listed as Thermococcus kodakaraensis) MILDTDYITEDGKPVIRIFKKENGEFKIEYDRTFEPYFYALLKDDSAIEEVKKITAERHGTVVTVKRVEKVQKKFLGRPVEVWKLYFTHPQDQPAIRDKIREHPAVIDIYEYDIPFAKRYLIDKGLVPMEGDEELKMLAFDIETLYHEGEEFAEGPILMISYADEEGARVITWKNVDLPYVDVVSTEREMIKRFLRVVKEKDPDVLITYNGDNFDFAYLKKRCEKLGINFALGRDGSEPKIQRMGDRFAVEVKGRIHFDLYPVIRRTINLPTYTLEAVYEAVFGQPKEKVYAEEITTAWETGENLERVARYSMEDAKVTYELGKEFLPMEAQLSRLIGQSLWDVSRSSTGNLVEWFLLRKAYERNELAPNKPDEKELARRRQSYEGGYVKEPERGLWENIVYLDFRSLYPSIIITHNVSPDTLNREGCKEYDVAPQVGHRFCKDFPGFIPSLLGDLLEERQKIKKKMKATIDPIERKLLDYRQRAIKILANSYYGYYGYARARWYCKECAESVTAWGREYITMTIKEIEEKYGFKVIYSDTDGFFATIPGADAETVKKKAMEFLKYINAKLPGALELEYEGFYKRGFFVTKKKYAVIDEEGKITTRGLEIVRRDWSEIAKETQARVLEALLKDGDVEKAVRIVKEVTEKLSKYEVPPEKLVIHEQITRDLKDYKATGPHVAVAKRLAARGVKIRPGTVISYIVLKGSGRIGDRAIPFDEFDPTKHKYDAEYYIENQVLPAVERILRAFGYRKEDLRYQKTRQVGLSAWLKPKGT",C,C,C
"KOD P36H: modified KOD DNA polymerase with P36H (protein, listed as Thermococcus kodakaraensis) MILDTDYITEDGKPVIRIFKKENGEFKIEYDRTFEHYFYALLKDDSAIEEVKKITAERHGTVVTVKRVEKVQKKFLGRPVEVWKLYFTHPQDVPAIRDKIREHPAVIDIYEYDIPFAKRYLIDKGLVPMEGDEELKMLAFDIETLYHEGEEFAEGPILMISYADEEGARVITWKNVDLPYVDVVSTEREMIKRFLRVVKEKDPDVLITYNGDNFDFAYLKKRCEKLGINFALGRDGSEPKIQRMGDRFAVEVKGRIHFDLYPVIRRTINLPTYTLEAVYEAVFGQPKEKVYAEEITTAWETGENLERVARYSMEDAKVTYELGKEFLPMEAQLSRLIGQSLWDVSRSSTGNLVEWFLLRKAYERNELAPNKPDEKELARRRQSYEGGYVKEPERGLWENIVYLDFRSLYPSIIITHNVSPDTLNREGCKEYDVAPQVGHRFCKDFPGFIPSLLGDLLEERQKIKKKMKATIDPIERKLLDYRQRAIKILANSYYGYYGYARARWYCKECAESVTAWGREYITMTIKEIEEKYGFKVIYSDTDGFFATIPGADAETVKKKAMEFLKYINAKLPGALELEYEGFYKRGFFVTKKKYAVIDEEGKITTRGLEIVRRDWSEIAKETQARVLEALLKDGDVEKAVRIVKEVTEKLSKYEVPPEKLVIHEQITRDLKDYKATGPHVAVAKRLAARGVKIRPGTVISYIVLKGSGRIGDRAIPFDEFDPTKHKYDAEYYIENQVLPAVERILRAFGYRKEDLRYQKTRQVGLSAWLKPKGT",B,B,C
